For 52 sequences, protein stability index results are on record in the supplement of paper PMC10567573.

The data set can be described thus: protein stability index of a GFP-peptide fusion (GPS, HEK-293T) (PSI 1-6); higher = more stable.
Setting [1] is: treatment: DMSO, c terminus: a fixed tail appended.
The mark [2] stands for this setting: treatment: MLN4924 1 uM, 8 h, c terminus: a fixed tail appended.
Where [3] appears, read: treatment: DMSO, c terminus: native.
The mark [4] stands for this setting: treatment: MLN4924 1 uM, 8 h, c terminus: native.

± gives the standard deviation.
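Further: 24-mer peptide tiles fused after GFP, lentivirally expressed, FACS-sorted into six equal bins by GFP/DsRed ratio, decoded by Illumina sequencing, PSI is the read-weighted mean bin number.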

EGHLDDGGYTPDLKMSYSRGLIPV [RBMY1A1] had a protein stability index under setting [1] of 3.25 ± 0.14 and a protein stability index under setting [2] of 3.15 ± 0.38.

With EGIKVEDLLFIVDTMLEEVENKEK [CEP70], the protein stability index reads like this: under setting [1], 3.07 ± 0.27; under setting [2], 3.03 ± 0.42.

Take EGVDIKNGTEDLPYAMKPIDYYTE [NSDHL]: the protein stability index runs as follows: under setting [1], 4.72 ± 0.25; under setting [2], 4.76 ± 0.27.

Regarding EISRGEYLYTYDSQITDSEHNSSL [ZNF8], the protein stability index is, setting by setting: under setting [1], 4.29 ± 0.49; under setting [2], 4.25 ± 0.54.

In the case of EIVGNLGEGTFGKVVECLDHARGK [CLK3], the protein stability index was found to be 3.81 ± 0.1 under setting [1] and 3.97 ± 0.29 under setting [2].

Regarding EKEFMKGNQLISNNIKFKKSSILT [CLCN6], the protein stability index was found to be 3.46 ± 0.17 under setting [1] and 3.48 ± 0.38 under setting [2].

With EKKEKEKKKKDKEKEKEKHKVKAE [BRD3], the protein stability index is 5.41 ± 0.22 under setting [1] and 5.53 ± 0.42 under setting [2].

Take EKVSQELKEPLHKALQMLLSQPVT [BCL2L13]: the protein stability index under setting [1] was 2.88 ± 0.26 and the protein stability index under setting [2] turned out to be 3 ± 0.45.

Consider ELARIVLLRHRMNWLGRPSKVLSL [RAB40A], for which the protein stability index by setting is: under setting [1], 2.46 ± 0.73; under setting [2], 2.43 ± 0.43.

ELDGPKQIFFGRRKDMIAEKLAPS [ZNF396] yielded a protein stability index under setting [1] of 3.62 ± 0.11 and a protein stability index under setting [2] of 3.62 ± 0.27.

For ELEGTEELCCVAELDNPMQQKWTK [C2CD2L], the protein stability index reads like this: under setting [1], 4.58 ± 0.45; under setting [2], 4.77 ± 0.28.

Turning to ELFKKDPGFDRGQFHKQIAVMRGQ [PI4K2A], the protein stability index is 2.8 ± 0.33 under setting [1] and 3.03 ± 0.19 under setting [2].

Consider ELFPTGKQLEPLVAPLADGKVAVG [VPS39], for which the protein stability index worked out at 3.84 ± 0.25 under setting [1] and 3.8 ± 0.24 under setting [2].

On to ELIILYEKKGLHEKALQVLVDQSK [VPS39], for which the protein stability index runs as follows: under setting [1], 2.26 ± 0.25; under setting [2], 2.53 ± 0.22.

ELRRDSSESQLASTESDKPTTGRV [C18orf25] came in with a protein stability index under setting [1] of 5.28 ± 0.38 and a protein stability index under setting [2] of 5.39 ± 0.21.

As for EMIQTSKTEITDLRRTMQELEIEL [KRT15], the protein stability index came to 3.65 ± 0.25 under setting [1] and 3.65 ± 0.13 under setting [2].

EMPYNIWCDGCKNHIGMGVRYNAE [YJU2B]: the protein stability index under setting [1] was found to be 2.27 ± 0.32 and the protein stability index under setting [2] turned out to be 2.49 ± 0.25.

Regarding ENYDIIKTYHYLYLAMLERFQDGD [FEM1B], the protein stability index under setting [1] came out at 2.37 ± 0.56 and the protein stability index under setting [2] turned out to be 2.52 ± 0.54.

EPEAASSRGSPVRVKREFEPASAR [USP39]: the protein stability index turned out to be 5.04 ± 0.16 under setting [1] and 5.11 ± 0.16 under setting [2].

Turning to EPLMTNKLSETFLQIYQYVPKDQR [DLC1], the protein stability index under setting [1] turned out to be 3.05 ± 0.33 and the protein stability index under setting [2] came to 3.47 ± 0.47.

With EQAKENENGELQKIILPRSRVKG [ZC2HC1C], the protein stability index reads like this: under setting [3], 3.42 ± 0.47; under setting [4], 3.42 ± 0.28.

Take EQFPELMNMLWSRMLKDNKKNWRR [CLINT1]: the protein stability index was 2.14 ± 0.037 under setting [1] and 2.39 ± 0.26 under setting [2].

Sequence EQLEAEAQALRQELERQRRLLGSV [PBXIP1] yielded a protein stability index under setting [1] of 4.04 ± 0.22 and a protein stability index under setting [2] of 4.02 ± 0.21.

Take EQVFSLGDGVSGGFFGIRDSSFL [ZBED1]: the protein stability index is, setting by setting: under setting [3], 3.36 ± 0.31; under setting [4], 3.61 ± 0.27.

As for ERICSEEERAKAKHLARQLEEKDR [CHCHD3], the protein stability index is, setting by setting: under setting [1], 5.4 ± 0.13; under setting [2], 5.17 ± 0.35.

In the case of ERLCMGVDCTEIFGGNPRFLSLHR [ZNF263], the protein stability index reads like this: under setting [1], 2.54 ± 0.24; under setting [2], 2.83 ± 0.13.

Regarding ERSGCALTDAVAPGNKGRGQRGNT [TCF25], the protein stability index turned out to be 5.22 ± 0.11 under setting [1] and 5.23 ± 0.13 under setting [2].

For ERSQVRGSAPPRATPGGGTGEAAR [PCDHGC5], the protein stability index turned out to be 5.13 ± 0.31 under setting [1] and 5.4 ± 0.18 under setting [2].

In the case of ESFFVDYEENEGAGPYLLNGSYLE [ADAMTSL2], the protein stability index under setting [1] stood at 3.658 ± 0.034 and the protein stability index under setting [2] is 3.82 ± 0.072.

In the case of ESGEHFRSLLGYDPQILQMLKEEH [RAD54B], the protein stability index was 3.77 ± 0.35 under setting [1] and 3.56 ± 0.55 under setting [2].

ESKIREHLEKKGPQVRDWSHYFKI [KRT18]: the protein stability index is, setting by setting: under setting [1], 2.82 ± 0.26; under setting [2], 2.67 ± 0.28.

In the case of ETPNPPQSAQIACSSPSVVASLPL [MAGEA10], the protein stability index reads like this: under setting [1], 4.62 ± 0.25; under setting [2], 4.59 ± 0.38.

For ETQTQRGGEFQCGLEAASVYSDHT [RNF180], the protein stability index worked out at 2.33 ± 0.16 under setting [1] and 2.2 ± 0.078 under setting [2].

With EVANKDLTERKYKGDSTIRELKAK [SASS6], the protein stability index turned out to be 3.27 ± 0.39 under setting [1] and 3.27 ± 0.53 under setting [2].

Regarding EVMESEEFMLLPANQLIDIISSDE [KLHL20], the protein stability index is, setting by setting: under setting [1], 4.54 ± 0.23; under setting [2], 4.64 ± 0.32.

Take EWDKNKSAFPFSDKLGELSDKIGS [CLINT1]: the protein stability index is, setting by setting: under setting [1], 3.57 ± 0.37; under setting [2], 3.6 ± 0.22.

With EYTLTGLKFDMKYMNFRVKACNKA [FSD1], the protein stability index by setting is: under setting [1], 2.79 ± 0.12; under setting [2], 2.77 ± 0.45.

Consider FAIGARARAEAEQMAKKAEAFQLY [FLOT1], for which the protein stability index runs as follows: under setting [1], 2.78 ± 0.42; under setting [2], 3.02 ± 0.58.

On to FDYEYDWIGKQLPTPVGAVQQDPA [CSNK1G3], for which the protein stability index under setting [1] was determined as 3.63 ± 0.2 and the protein stability index under setting [2] worked out at 3.65 ± 0.44.

For FEFQVRVCDSCYDSIKDEDRTSLA [WDFY1], the protein stability index under setting [1] amounted to 2.78 ± 0.23 and the protein stability index under setting [2] is 3 ± 0.61.

Take FEFSVDSFQIVLDPMLDFYSDKNA [TENT5D]: the protein stability index runs as follows: under setting [1], 2.91 ± 0.93; under setting [2], 2.52 ± 0.42.

Take FFLFIGVILFSSAVYFAEADDPTS [KCNA3]: the protein stability index by setting is: under setting [1], 2.8 ± 0.1; under setting [2], 3.09 ± 0.2.

Regarding FGCFFYVYYIFERLCAPLFRNIKQ [SOAT1], the protein stability index under setting [1] came out at 2.37 ± 0.2 and the protein stability index under setting [2] was determined as 2.69 ± 0.068.

Turning to FILGRLCVPVFANMSREPFSTRAL [SOAT2], the protein stability index is, setting by setting: under setting [1], 2.94 ± 0.56; under setting [2], 2.56 ± 0.52.

As for FKAYIKIYQGEDLPHPKSMLQATA [ATL3], the protein stability index is, setting by setting: under setting [1], 2.78 ± 0.35; under setting [2], 2.5 ± 0.57.

On to FKDKLEETKGQINNSIKDLTDGHF [SERPINB5], for which the protein stability index reads like this: under setting [1], 4.42 ± 0.2; under setting [2], 4.5 ± 0.2.

Regarding FKPLNSTPATTTEPPKPTFPAYTQ [ZNF207], the protein stability index is 3.84 ± 0.26 under setting [1] and 3.9 ± 0.14 under setting [2].

As to FKRWIYLNDQNLCIPASSSFVYGA [GAN], the protein stability index by setting is: under setting [1], 2.41 ± 0.37; under setting [2], 2.47 ± 0.38.

On to FLVFILNAGLVWFFPWREAKPGST [MFSD9], for which the protein stability index turned out to be 3.21 ± 0.74 under setting [1] and 3.11 ± 0.19 under setting [2].

In the case of FMEERELLGQDEETAMRKSLGEEE [RSPH3], the protein stability index by setting is: under setting [1], 5.58 ± 0.12; under setting [2], 5.46 ± 0.4.

In the case of FMSPCDKFRAKGRKPCKLMLQVVK [MCOLN1], the protein stability index by setting is: under setting [1], 2.26 ± 0.26; under setting [2], 2.38 ± 0.24.

On to FPEELHRKAALEQDLAFWYGPRWQ [HMOX1], for which the protein stability index by setting is: under setting [1], 2.3 ± 0.25; under setting [2], 2.62 ± 0.31.
